# B1: MR1-V5 CAR (other)
# chain: QVQLQQSGGGLVKPGASLKLSCVTSGFTFRKFGMSWVRQTSDKRLEWVASISTGGYNTYYSDNVKGRFTISRENAKNTLYLQMSSLKSEDTALYYCTRGYSSTSYAMDYWGQGTTVTVGGGGSGGGGSGGGGSDIELTQSPASLSVATGEKVTIRCMTSTDIDDDMNWYQQKPGEPPKFLISEGNTLRPGVPSRFSSSGTGTDFVFTIENTLSEDVGDYYCLQSFNVPLTFGDGTKLEKALEPKSPDKTHTCPPCPAPPVAGPSVFLFPPKPKDTLMIARTPEVTCVVVDVSHEDPEVKFNWYVDGVEVHNAKTKPREEQYNSTYRVVSVLTVLHQDWLNGKEYKCKVSNKALPAPIEKTISKAKGQPREPQVYTLPPSRDELTKNQVSLTCLVKGFYPSDIAVEWESNGQPENNYKTTPPVLDSDGSFFLYSKLTVDKSRWQQGNVFSCSVMHEALHNHYTQKSLSLSPGKKDPKIYIWAPLAGTCGVLLLSLVITLYCKRGRKKLLYIFKQPFMRPVQTTQEEDGCSCRFPEEEEGGCELRVKFSRSADAPAYQQGQNQLYNELNLGRREEYDVLDKRRGRDPEMGGKPRRKNPQEGLYNELQKDKMAEAYSEIGMKGERRRGKGHDGLYQGLSTATKDTYDALHMQALPPR
# notes: Chimeric antigen receptor on the surface of primary T cells; It has the MR1 scFv, IgG1 hinge, CD8 alpha TM, 4-1BB and CD3 zeta; also called 27
# B2: 139-V3 CAR (other)
# chain: DIQMTQSPSSLSASVGDRVTITCRASQGIRNNLAWYQQKPGKAPKRLIYAASNLQSGVPSRFTGSGSGTEFTLIVSSLQPEDFATYYCLQHHSYPLTSGGGTKVEIKGGGGSGGGGSGGGGSEVQVLESGGGLVQPGGSLRLSCAASGFTFSSYAMSWVRQAPGKGLEWVSAISGSGGSTNYADSVKGRFTISRDNSKNTLYLQMNSLRAEDTAVYYCAGSSGWSEYWGQGTLVTVSSTTTPAPRPPTPAPTIASQPLSLRPEACRPAAGGAVHTRGLDFACDIYIWAPLAGTCGVLLLSLVITLYCKRGRKKLLYIFKQPFMRPVQTTQEEDGCSCRFPEEEEGGCELRVKFSRSADAPAYQQGQNQLYNELNLGRREEYDVLDKRRGRDPEMGGKPRRKNPQEGLYNELQKDKMAEAYSEIGMKGERRRGKGHDGLYQGLSTATKDTYDALHMQALPPR
# notes: Chimeric antigen receptor on the surface of primary T cells (mRNA transfection); also called CARs 139-V3; 24
# B3: 139-V5 CAR (other)
# chain: DIQMTQSPSSLSASVGDRVTITCRASQGIRNNLAWYQQKPGKAPKRLIYAASNLQSGVPSRFTGSGSGTEFTLIVSSLQPEDFATYYCLQHHSYPLTSGGGTKVEIKGGGGSGGGGSGGGGSEVQVLESGGGLVQPGGSLRLSCAASGFTFSSYAMSWVRQAPGKGLEWVSAISGSGGSTNYADSVKGRFTISRDNSKNTLYLQMNSLRAEDTAVYYCAGSSGWSEYWGQGTLVTVSSEPKSPDKTHTCPPCPAPPVAGPSVFLFPPKPKDTLMIARTPEVTCVVVDVSHEDPEVKFNWYVDGVEVHNAKTKPREEQYNSTYRVVSVLTVLHQDWLNGKEYKCKVSNKALPAPIEKTISKAKGQPREPQVYTLPPSRDELTKNQVSLTCLVKGFYPSDIAVEWESNGQPENNYKTTPPVLDSDGSFFLYSKLTVDKSRWQQGNVFSCSVMHEALHNHYTQKSLSLSPGKKDPKIYIWAPLAGTCGVLLLSLVITLYCKRGRKKLLYIFKQPFMRPVQTTQEEDGCSCRFPEEEEGGCELRVKFSRSADAPAYQQGQNQLYNELNLGRREEYDVLDKRRGRDPEMGGKPRRKNPQEGLYNELQKDKMAEAYSEIGMKGERRRGKGHDGLYQGLSTATKDTYDALHMQALPPR
# notes: Chimeric antigen receptor on the surface of primary T cells; also called CARs 139-V5; 25
# B4: MR1-V3 CAR (other)
# chain: QVQLQQSGGGLVKPGASLKLSCVTSGFTFRKFGMSWVRQTSDKRLEWVASISTGGYNTYYSDNVKGRFTISRENAKNTLYLQMSSLKSEDTALYYCTRGYSSTSYAMDYWGQGTTVTVGGGGSGGGGSGGGGSDIELTQSPASLSVATGEKVTIRCMTSTDIDDDMNWYQQKPGEPPKFLISEGNTLRPGVPSRFSSSGTGTDFVFTIENTLSEDVGDYYCLQSFNVPLTFGDGTKLEKALTTTPAPRPPTPAPTIASQPLSLRPEACRPAAGGAVHTRGLDFACDIYIWAPLAGTCGVLLLSLVITLYCKRGRKKLLYIFKQPFMRPVQTTQEEDGCSCRFPEEEEGGCELRVKFSRSADAPAYQQGQNQLYNELNLGRREEYDVLDKRRGRDPEMGGKPRRKNPQEGLYNELQKDKMAEAYSEIGMKGERRRGKGHDGLYQGLSTATKDTYDALHMQALPPR
# notes: Chimeric antigen receptor on the surface of primary T cells; It has the MR1 scFv (VH, (G4S)3 linker, VL), CD8 alpha hinge, CD8 alpha TM, 4-1BB and CD3 zeta; also called 26
# Biological target: T1, recombinant protein consisting of the extracellular domain of the human EGFRVIII protein fused with a murine … (human; murine, UniProt P00533 25-645)
# T1 construct: extracellular domain; It is described in the general methods as the reagent for detecting CAR on T cells by flow cytometry; also called EGFRvIII-mouse Fc detection reagent; not shown: murine IgG1 Fc fragment
# Assay: flow cytometry of CAR on primary T cells; by the general methods detected through binding of EGFRvIII ECD-mouse IgG1 Fc and a PE anti-mouse Fc antibody
# Method: Transduction of T-cells with recombinant lentiviral vectors expression the CAR was carried out three days after T-cell purification/activation. Lentiviral vectors produced by Vectalys SA (Toulouse, France) by transfection of genomic and helper plasmids in HEK-293 cells may be used. Transductions were carried out at a multiplicity of infection of 5. CAR detection at the surface of T-cells is performed using a recombinant protein consisting on the extracellular domain of the human […] protein fused together with a murine IgG1 Fc fragment (produced by LakePharma). Binding of this protein to the CAR molecule is detected with a PE-conjugated secondary antibody (Jackson lmmunoresearch) targeting the mouse Fc portion of the protein, and analyzed by flow cytometry.
row,Binder,binding result
1,B1,binds
2,B2,binds
3,B3,binds
4,B4,binds

# Reference: patent publication US20170275366A1 (Pfizer, published 2017)
